This is an account of results in patent publication US20070083037A1 (published 2007).

By IC50 is commonly meant the concentration needed to halve the response being measured.

The target in experiment [1] is T1, rhesus monkey NPY Y4 receptor protein of SEQ ID NO: 4 (encoded by the nucleotide sequence of SEQ ID NO: 3) (rhesus monkey, UniProt P0DQD5 1-375 (human entry)).
T1 construct: 375 residues; also called rhesus monkey Y4 receptor
T1 chain: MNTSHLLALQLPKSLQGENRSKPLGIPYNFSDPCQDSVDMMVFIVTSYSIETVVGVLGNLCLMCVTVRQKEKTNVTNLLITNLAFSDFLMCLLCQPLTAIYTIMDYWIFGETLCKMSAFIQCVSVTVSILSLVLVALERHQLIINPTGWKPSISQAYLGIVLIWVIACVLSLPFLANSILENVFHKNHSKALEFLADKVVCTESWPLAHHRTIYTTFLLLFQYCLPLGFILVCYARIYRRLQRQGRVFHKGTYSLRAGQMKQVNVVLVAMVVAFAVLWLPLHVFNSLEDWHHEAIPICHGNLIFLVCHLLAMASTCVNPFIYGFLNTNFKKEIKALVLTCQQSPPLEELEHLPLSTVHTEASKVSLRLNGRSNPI
Kind of experiment: competition against 59 pM [125I]human PP, COS-7 membrane fractions, filter binding. As to the method:
(§1) The membrane fraction obtained in this manner was incubated for 2 hours at 25° C. together with 31 pM [¹²⁵I]human PP in 25 mM Tris buffer (pH 7.4) containing 10 mM MgCl₂, 1 mM phenylmethylsulfonyl fluoride, 0.1% bacitracin and 0.5% bovine serum albumin, and then filtered through a polyethyleneimine-treated UniFilter-96 GF/C (Perkin-Elmer). After rinsing with 5 mM Tris buffer (pH 7.4) containing 0.3% bovine serum albumin and drying, MicroScint0 (Perkin-Elmer) was added, and a TopCount HTS (Packard) was used to measure the residual radioactivity on the filter. The non-specific binding was measured in the presence of 1 μM human PP.
(§2) Also, with the membrane fraction concentration set to 0.155 and 0.14 mg protein/ml and the [¹²⁵I]human PP concentration set to 59 pM, human PP, human NPY and swine PYY were added to the reaction solution at different concentrations, and a Prism Version 4.00 (GraphPad) was used to determine the 50% inhibitory concentration (IC₅₀ value) from the inhibition curve for each peptide against specific [¹²⁵I]human PP binding (FIGS. 3 and 4).

Experiment [2] concerns the target T2, rhesus monkey NPY Y4 receptor protein of SEQ ID NO: 2 (encoded by the nucleotide sequence of SEQ ID NO: 1) (rhesus monkey, UniProt P0DQD5 1-375 (human entry)).
T2 construct: 375 residues; also called rhesus monkey Y4 receptor
T2 chain: T1 chain with A361V
The description is as above. As to the method: as §1, §2

Experiment [3] concerns the target T1, rhesus monkey NPY Y4 receptor protein …. Briefly: cell-based or functional assay.
In experiment [4] the target is T2, rhesus monkey NPY Y4 receptor protein …. Kind of experiment: cell-based or functional assay.

Residue numbers refer to the chain shown, from its start. Where no end group is shown, it is not given here.

B1: human Neuropeptide-Y (peptide)
peptide: not shown
notes: mature; also called human NPY; NPY
Turning to B1, the 50% inhibitory concentration (IC50) in experiment [1] is 97 nM; in experiment [2], 100 nM.

B2: swine Peptide YY (peptide)
peptide: not shown
notes: mature; also called swine PYY; PYY
Take B2: the figures for the IC50 in experiment [1] and in experiment [2] were 9.9 nM and 10 nM, respectively.
Consider APLEPVYPGDNATPEQMAQYAADLRRYINMLTRPRY (peptide, UniProt P01298 30-65, looked up, ends and bridges not checked, mature; also called human PP; PP) [human Pancreatic Polypeptide], for which the “EC50 of the increase in fluorescent intensity (intracellular calcium ion concentration, Fluo-4, FLIPR) in CHO-K1 cells with G alpha 15” value is 4.8 nM in experiment [3] and 1.8 nM in experiment [4]. Further, the IC50 came to 0.17 nM in experiment [1] and 0.24 nM in experiment [2].
